The record followed here is patent US20210284749A1 (ABL BIO, published 2021).

Where a chain is given by its changes, count along the chain named. “And” between values parts separate entries of the source, which are not always exact repeats. Equal values may be shown once.

Assay [1] deals with T1, recombinant human BCMA (ELISA antigen, construct not specified) (human, UniProt Q02223 1-54).
T1 construct: Fc 1-51; Fc/His 1-51; Fc 4-48) was coated in these ELISAs; also called recombinant BCMA; recombinant protein
T1 sequence: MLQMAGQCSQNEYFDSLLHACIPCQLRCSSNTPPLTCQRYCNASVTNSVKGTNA
In words: ELISA on 100 ng coated human BCMA, antibody titrated, anti-human Fab HRP, absorbance 450 nm. On the procedure:
(§1) 100 ng of human, monkey, mouse, and rat BCMA antigens prepared in Example 1.1 were coated on the bottom of the plate, and then coated with 3% BSA to block nonspecific binding. Using the selected anti-BCMA IgG antibodies as primary antibodies, and the anti-human Fab HRP (1:20000 dilution) as a secondary antibody, ELISA assay was performed as described in Example 1.3.
(§2) Absorbancies at 450 nm measured with a microplate reader are shown in FIG. 3, and half maximal effective concentrations (EC₅₀) (nM) are shown in Table 9.
On the technique in general: ELISA stands for enzyme-linked immunosorbent assay.

In assay [2] the target is T2, human BCMA expressed on cell surface (H929, OPM-2, CHOK1-hBCMA cells) (human, UniProt Q02223 1-184).
T2 construct: also called cell-surface BCMA; BCMA on cell surface
T2 sequence: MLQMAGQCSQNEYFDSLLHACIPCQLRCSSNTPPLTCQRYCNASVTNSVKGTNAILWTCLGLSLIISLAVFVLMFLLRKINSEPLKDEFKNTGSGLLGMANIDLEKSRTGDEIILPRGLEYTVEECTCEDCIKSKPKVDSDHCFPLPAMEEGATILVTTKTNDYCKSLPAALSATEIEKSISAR
Briefly: FACS on H929 cells.

Assay [3] concerns the target T3, monkey (Rhesus) BCMA (1-53) fused to the Fc region of human IgG1 (monkey (Rhesus); human, UniProt Q02223 1-54).
T3 construct: Sino Biological Inc. 90103-C02H; also called monkey BCMA; Monkey BCMA (1-53); not shown: Fc region of human IgG1
Briefly: BLI (Octet), monkey BCMA. On the technique in general: BLI is a label-free optical method that tracks binding on a fibre tip over time.

Another assay concerns the target T4, human BCMA-Fc/His (1-51) (human, UniProt Q02223 1-51).
T4 construct: also called recombinant human BCMA-Fc/His; recombinant human BCMA-His (Sino Biological Inc.); not shown: Fc region; C-terminal His tag
T4 sequence: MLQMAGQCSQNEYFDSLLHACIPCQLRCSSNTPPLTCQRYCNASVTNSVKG
Briefly: BLI (Octet), antigen on Ni-NTA biosensor, IgG in solution. Here is the method:
A 96-well black microplate was mounted on a Biosensor tray case, 200 μl of 1XKB was added to each of the 8 wells, and then 8 Ni-NTA biosensors (Fortebio) were inserted thereto for hydration for 10 minutes. For antigen fixation, 5 μg/ml of recombinant human BCMA-His (Sino Biological Inc.) was diluted using 1XKB. Experiments were performed with a threshold of 0.5 to 1.0 nm, and Octet Data Acquisition 9.0 software was activated to create an Octet program template. The first step was for Baseline 1, the second step was for loading, and the threshold was fixed to 0.5 to 1.0 nm. In the third step, which was for Baseline 2, association for 5 minutes and dissociation for 20 minutes were performed. A plate temperature was fixed to 30° C., and the prepared buffer solution was placed in order into a new 96-well black microplate according to the Octet program template. 200 μl of 1XKB used as Baseline 1 and recombinant human BCMA-Fc/His which is an antigen to be loaded were diluted to 5 μg/ml, and 200 μl of the dilution was added thereto. After adding 200 μl of 1XKB used as Baseline 2, 200 μl of the antibody to be reacted with the antigen was dispensed, and the instrument was operated. After completion of the experiment, an association constant (kon), a dissociation constant (kdis), and an equilibrium dissociation constant (KD) for each antibody were analyzed and calculated with Octet Analysis 9.0 software.

In assay [4] the target is T1, recombinant human BCMA (ELISA antigen, …). Briefly: ELISA on recombinant BCMA.
Assay [5] concerns the target T3, monkey (Rhesus) BCMA (1-53) fused to …. In words: ELISA, 100 ng coated antigen. On the procedure:
as §1, §2

Assay [6] has as its target T1, recombinant human BCMA (ELISA antigen, …). Briefly: ELISA, 100 ng coated antigen. On the procedure:
as §1, §2

Assay [7] concerns the target T3, monkey (Rhesus) BCMA (1-53) fused to …. In words: ELISA on 100 ng coated rhesus BCMA, antibody titrated, anti-human Fab HRP, absorbance 450 nm. Here is the method: as §1, §2
Assay [8] addresses T5, mouse BCMA (1-49) fused to the Fc region of human IgG1 (mouse; human, UniProt O88472 1-49).
T5 construct: Sino Biological Inc. 50076-M01H; also called 50076-M01H; not shown: Fc region of human IgG1
T5 chain: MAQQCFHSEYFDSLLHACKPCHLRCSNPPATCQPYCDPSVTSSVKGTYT
In words: ELISA, 100 ng coated antigen. On the procedure: as §1, §2

Assay [9] has as its target T6, rat BCMA (1-49) fused to the Fc region of human IgG1 (rat; human).
T6 construct: Sino Biological Inc. 80156-R01H; also called 80156-R01H; not shown: Fc region of human IgG1
T6 chain: T5 chain with Q4R, H22R, T31P, V40M, K45R
In words: ELISA, 100 ng coated antigen. Here is the method:
as §1, §2

B1: anti-BCMA IgG antibody 5A6 (antibody, V domains shown)
VH: EVQLLESGGGLVQPGGSLRLSCAASGFTFSNYGVHWVRQAPGKGLEWVSYISYSGGTYYNPSLKSRFTISRDNSKNTLYLQMNSLRAEDTAVYYCARDSDDFGFDYWGQGTLVTVSS
VL: QSVLTQPPSASGTPGQRVTISCQGDSLRSYYVNWYQQLPGTAPKLLIYDHSKRPTGVPDRFSGSKSGTSASLAISGLRSEDEADYYCQSYDSSTVVFGGGTKLTVLG
notes: also called 5A6 WT; 5A6 antibody
As a reminder, the EC50 (read off the curve) is the midpoint of the concentration-response curve. The term Kd denotes a measure of binding affinity in units of concentration. What is called koff is the first-order rate constant of dissociation. In general, kon refers to the second-order rate constant of association. In general, EC50 refers to the midpoint of the concentration-response curve. Take B1: the “EC50 (read off the curve)” value in [1] and in assay [7] was approximately 0.02 mg/L each time. For the same molecule, the MFI in [2] amounted to 68.2. Besides, the Kd in [3] was found to be 4.51 nM; with human BCMA-Fc/His (1-51), 0.0212 nM. Further, the off-rate (koff) in assay [3] is 0.00163 s⁻¹; with human BCMA-Fc/His (1-51) it was 1.08e-05 s⁻¹. For the same molecule, the kon in assay [3] turned out to be 361000 M⁻¹ s⁻¹; in the assay with human BCMA-Fc/His (1-51), 509000 M⁻¹ s⁻¹. Also, the 50% effective concentration (EC50) was 0.0631 nM and 0.0643 nM and 0.077 nM in assay [4]; 153 nM in assay [5]; 100 nM in assay [6].

B2: anti-BCMA IgG antibody 5D5 (antibody, V domains shown)
VH: EVQLLESGGGLVQPGGSLRLSCAASGFTFSDYGLSWVRQAPGKGLEWVSLIDSSGSSTFYADSVKGRFTISRDNSKNTLYLQMNSLRAEDTAVYYCAKEHGLFDSWGQGTLVTVSS
VL: EIVLTQSPGTLSLSPGERATLSCKASQDIDDDINWYQQKPGQAPRLLIYDASLRATGIPDRFSGSGSGTDFTLTISRLEPEDFAVYYCQQSLRTPITFGQGTKLEIKR
notes: also called 5D5 WT; 5D5 antibody
In the case of B2, the “EC50 (read off the curve)” value in assay [1] and in assay [7] was approximately 0.01 mg/L each time. The MFI in [2] amounted to 36.4. In addition, the Kd in assay [3] was 0.346 nM; in the assay with human BCMA-Fc/His (1-51), 0.114 nM. Moreover, the koff in [3] came to 0.000585 s⁻¹; with human BCMA-Fc/His (1-51), 0.000105 s⁻¹. The figures for the kon (in [3]; in the assay with human BCMA-Fc/His (1-51)) were 1.69e+06 M⁻¹ s⁻¹ and 919000 M⁻¹ s⁻¹, respectively. Further, the EC50 in [4] is 0.0708 nM and 0.0652 nM; in assay [8], 150 nM; in assay [5] it was 94 nM; in assay [6], 140 nM; in assay [9], 98 nM.
